Experimental data: paper PMC3770644 (PLoS ONE, 2013)
Positions count from the first letter of the chain named. Numbers in names are those of the source.

B1: CIN85 F322Y SH3-C (domain or fragment, UniProt Q96B97 270-328, looked up)
chain: DYCKVIFPYEAQNDDELTIKEGDIVTLINKDCIDVGWWEGELNGRRGVFPDNYVKLLPP
notes: CIN85 third SH3 domain (SH3-C) with F322Y; limits as the WT construct CIN85-SH3C(270-328)His6; Site-directed mutagenesis (QuikChange) of the WT construct m4; also called CIN85 SH3-C F322Y mutant; CIN85 F322Y SH3-C mutant; source: E. coli BL21/DE3, purified like the WT CIN85 SH3-C
B2: CD2AP F324Y SH3-C (domain or fragment)
chain: AKEYCRTLFPYTGTNEDELTFREGEIIHLISKETGEAGWWKGELNGKEGVFPDNYAVQIS
notes: CD2AP third SH3 domain (SH3-C) with F324Y; Site-directed mutagenesis (QuikChange) of the WT construct m3; also called SH3-C F324Y mutant; F324Y CD2AP SH3-C; source: E. coli BL21/DE3, purified like the WT CD2AP SH3-C
B3: CD2AP SH3-C T283A mutant (domain or fragment)
chain: B2 chain with T14A, Y55F
notes: CD2AP third SH3 domain (SH3-C) with T283A (RT loop); Mutant of m3; source: purchased from Topgene and expressed as the WT domains; purified

Tests used:
[1] = target: T1, ubiquitin (whether His-tagged or not is not told for the experiment) (UniProt P0CG48 1-76); test: NMR titration; unlabelled SH3 domain titrated into 0.25 mM 15N-ubiquitin; 1H-15N HSQC chemical shift perturbation; 25 °C; 50 mM NaPi, 1 mM DTT, pH 6.0; settings: both partners purified
T1 construct: ubiquitin, the 76-residue cut product (residues up to Gly76 are named); The methods list His-tagged and non His-tagged ubiquitin; It may carry the C-terminal His tag of m6; 15N- or 13C,15N-labelled in some NMR experiments; source: purchased from Spectra Isotopes or obtained as described in [12]; [18]

[2] = target: T1, ubiquitin (whether His-tagged or not is …); test: other fluorescence titration + ITC; 25 °C; ubiquitin stock titrated into the SH3 domain; ITC in 20 mM cacodylate, pH 6.0, about 50 µM SH3 in the cell and about 800 µM ubiquitin; intrinsic tryptophan fluorescence (excitation 298 nm), apparent affinities; model of a single set of identical sites; settings: both partners purified

Binder	binding result [1]	Kd [2] [µM]
B1	binds	
B2		24 ± 3
B3	binds	
